According to patent US20200405610A1, “COSMETIC COMPOSITION” (Shaanxi Huikang Bio-Tech Co., Ltd., priority 2016, published 2020):

Assay: Isoelectric point of the pentapeptide
Assay type: physicochemical

“Tyr-Gly-Phe-Gly-Gly (YGFGG; OGP(10-14); listed as Homo sapiens)” gave an isoelectric point of 5.52.
